Experimental data: paper PMC5027513 (Nucleic Acids Research, 2016)

Columns and labels:
[1] = target: T1, TnpA (IS608 transposase, Y1 HuH) (UniProt Q933Z0 1-155); assay: EMSA
T1 sequence: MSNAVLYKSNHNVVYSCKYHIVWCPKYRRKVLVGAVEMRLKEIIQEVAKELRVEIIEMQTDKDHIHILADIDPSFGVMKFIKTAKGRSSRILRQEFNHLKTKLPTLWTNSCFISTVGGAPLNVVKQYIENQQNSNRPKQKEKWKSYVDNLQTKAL

[2] = target: T1, TnpA (IS608 transposase, Y1 HuH); assay: EMSA; remark: listed apart in the source
[3] = target: T1, TnpA (IS608 transposase, Y1 HuH); assay: EMSA; remark: listed apart in the source
two-hybrid = target: the molecule itself; assay: two-hybrid
Ssb = Ssb (UniProt P0AGE0 1-178); assay: EMSA
[4] = target: T1, TnpA (IS608 transposase, Y1 HuH); assay: competition

Ssb, sequence (P0AGE0 whole entry): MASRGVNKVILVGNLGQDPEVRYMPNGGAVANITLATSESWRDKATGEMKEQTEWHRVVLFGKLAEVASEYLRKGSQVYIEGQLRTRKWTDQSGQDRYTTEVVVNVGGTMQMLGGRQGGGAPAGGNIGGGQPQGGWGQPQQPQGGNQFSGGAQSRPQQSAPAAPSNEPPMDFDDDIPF

B1: fork / flap (L73 + L76l + L77) (mixed)
DNA 1: GTGATGACCTGTCGCCTCTGCCCGAAGACTCTAGATCGATACAAGCTACGCCTCTCAGCTCCGATGATGACGCTC
DNA 2: GAGCGTCATCATCGGAGCTGAGAGGCGTAGCTTGTATCTAGGAAGCCGCTGTAGCTCTCGCAATCAGCAGCCTTGTGCCG
DNA 3: CGGCACAAGGCTGCTGATTGCGAGAGCTACAGCGGCTTCCTA
binding result [1]: binds

B2: ss60 (LE80 with 60-nt ss tail, S46) (structured_DNA)
DNA: CGCTAGTGCAAAAATTACCAAAACTAACGCCTTAAAGCCCCTAGCTTTTAGCTATGGGGATACAAGGCGAAACGCCTTCTGATGTCCTGTCGCCTCTGCCCGAAGACTCTAGATCGATTCAAGCTTCGCCTCTCAGCT
binding result [2]: binds

B3: ds60 (S46 + S44) (mixed)
DNA 1: CGCTAGTGCAAAAATTACCAAAACTAACGCCTTAAAGCCCCTAGCTTTTAGCTATGGGGATACAAGGCGAAACGCCTTCTGATGTCCTGTCGCCTCTGCCCGAAGACTCTAGATCGATTCAAGCTTCGCCTCTCAGCT
DNA 2: AGCTGAGAGGCGAAGCTTGAATCGATCTAGAGTCTTCGGGCAGAGGCGACAGGACATCAG
binding result [3]: binds

B4: TnpAIS608, transposase of IS608, BACTH hybrid (T25-TnpAIS608 or TnpAIS608-T18) (enzyme, Helicobacter pylori (IS608), UniProt Q933Z0 1-155, looked up)
chain: MSNAVLYKSNHNVVYSCKYHIVWCPKYRRKVLVGAVEMRLKEIIQEVAKELRVEIIEMQTDKDHIHILADIDPSFGVMKFIKTAKGRSSRILRQEFNHLKTKLPTLWTNSCFISTVGGAPLNVVKQYIENQQNSNRPKQKEKWKSYVDNLQTKAL
β-galactosidase activity, fold above negative control (two-hybrid): 5 fold

B5: ss target 125 nt (S56) (ssDNA)
DNA: GTGATGTCCTGTCGCCTCTGCCCGAAGACTCTATTACGATTCAAGCTTCGCCTCTCAGCTCCGATGATGTCGCTCATGCCTGCAGCAATGGCAACAACGAACGGCAAACTATTAACTGGCGAACT
binding result (Ssb): binds

B6: LE100 (structured_DNA)
DNA: CGGGCTGCAGGAATTCGATTTGCGCTAGTGCAAAAATTACCAAAACTAACGCCTTAAAGCCCCTAGCTTTTAGCTATGGGGATACAAGGCGAAACGCCTT
binding result [4]: binds
